Key:
HLA-B*5001 (B50) (human) = assay: Luminex single-antigen beads; MEM-E/02 1/600; serum Mi114 1/100
HLA-Cw*0304 (human) = assay: as above
HLA-B*1401 (B64) (human) = HLA-B*1401 (B64) (human) (UniProt P01889); assay: as above
HLA-B*4501 (B45) (human) = assay: as above
[1] = target: HLA-Cw*1502 (Cw15) (human); assay: as above
HLA-B*1511 (B75) (human) = HLA-B*1511 (B75) (human) (UniProt P01889); assay: as above
HLA-B*1513 (B77) (human) = assay: as above
HLA-B*2708 (B27) (human) = HLA-B*2708 (B27) (human) (UniProt P01889); assay: as above
HLA-B*4801 (B48) (human) = HLA-B*4801 (B48) (human) (UniProt P01889); assay: as above
HLA-A*2501 (A25) (human) = assay: as above
HLA-B*5301 (B53) (human) = assay: as above
HLA-B*1301 (B13) (human) = assay: as above
HLA-A*3301 (A33) (human) = assay: as above
HLA-B*5901 (B59) (human) = assay: as above
HLA-A*2601 (A26) (human) = assay: as above
HLA-B*5201 (B52) (human) = assay: as above
HLA-A*2901 (A29) (human) = HLA-A*2901 (A29) (human) (UniProt P04439); assay: as above
[2] = target: HLA-Cw*1802 (Cw18) (human) (UniProt P10321); assay: as above
HLA-B*1801 (B18) (human) = assay: as above
HLA-B*0801 (B8) (human) = HLA-B*0801 (B8) (human) (UniProt P01889); assay: as above
HLA-B*5401 (B54) (human) = HLA-B*5401 (B54) (human) (UniProt P01889); assay: as above
[3] = target: HLA-Cw*1203 (Cw12) (human) (UniProt P10321); assay: as above
HLA-B*4006 (human) = HLA-B*4006 (human) (UniProt P01889); assay: Luminex beads; MAb 1/100; competitor IgG-free serum
HLA-B*1801 (human) = assay: as above
HLA-Cw*0302 (human) = HLA-Cw*0302 (human) (UniProt P10321); assay: as above
HLA-Cw*0602 (human) = HLA-Cw*0602 (human) (UniProt P10321); assay: as above
HLA-B*4403 (human) = assay: as above
HLA-B*4101 (human) = HLA-B*4101 (human) (UniProt P01889); assay: as above
HLA-Cw*0501 (human) = assay: as above
HLA-Cw*1701 (human) = assay: as above
HLA-B*1401 (human) = HLA-B*1401 (human) (UniProt P01889); assay: as above
HLA-Cw*0801 (human) = HLA-Cw*0801 (human) (UniProt P10321); assay: as above
HLA-Cw*0702 (human) = HLA-Cw*0702 (human) (UniProt P10321); assay: as above
HLA-Cw*1402 (human) = HLA-Cw*1402 (human) (UniProt P10321); assay: as above
HLA-B*1511 (human) = HLA-B*1511 (human) (UniProt P01889); assay: as above
HLA-Cw*0202 (human) = assay: as above
HLA-B*5801 (human) = assay: as above
HLA-Cw*1601 (human) = HLA-Cw*1601 (human) (UniProt P10321); assay: Luminex beads; MAb 1/1600; PBS only
HLA-B*4701 (human) = assay: Luminex beads; MAb 1/1600; PBS only
HLA-B*5101 (human) = assay: Luminex beads; MAb 1/1600; PBS only

murine monoclonal antibody MAb MEM-E/02 showed an MFI (HLA-B*5001 (B50) (human)) of under 500 MFI, an MFI (HLA-Cw*0304 (human)) of under 500 MFI and an MFI (HLA-B*1401 (B64) (human)) of under 500 MFI. The MFI (HLA-B*4501 (B45) (human)) was under 500 MFI, the MFI [1] was under 500 MFI and the MFI (HLA-B*1511 (B75) (human)) was under 500 MFI. For the same substance, the MFI (HLA-B*1513 (B77) (human)) was 1550 MFI, the % inhibition (HLA-B*2708 (B27) (human)) was 29% and the MFI (HLA-B*2708 (B27) (human)) was 2260 MFI. For the same substance, the MFI (HLA-B*4801 (B48) (human)) was 969 MFI, the MFI (HLA-A*2501 (A25) (human)) was under 500 MFI and the MFI (HLA-B*5301 (B53) (human)) was under 500 MFI. The MFI (HLA-B*1301 (B13) (human)) was under 500 MFI, the MFI (HLA-A*3301 (A33) (human)) was under 500 MFI and the MFI (HLA-B*5901 (B59) (human)) was 930 MFI. The MFI (HLA-A*2601 (A26) (human)) was under 500 MFI, the % inhibition (HLA-B*5201 (B52) (human)) was 88% and the MFI (HLA-A*2901 (A29) (human)) was under 500 MFI. The MFI [2] was under 500 MFI, the MFI (HLA-B*1801 (B18) (human)) was under 500 MFI and the MFI (HLA-B*0801 (B8) (human)) was under 500 MFI. The % inhibition (HLA-B*5401 (B54) (human)) was 95%, the MFI (HLA-B*5401 (B54) (human)) was 990 MFI and the MFI [3] was under 500 MFI.

In the case of “murine monoclonal antibody (MAb) MEM-E/02”, the MFI (HLA-B*4006 (human)) is reported as 9090 MFI, the MFI (HLA-B*1801 (human)) is reported as 3510 MFI and the MFI (HLA-Cw*0302 (human)) is reported as 2200 MFI. The MFI (HLA-Cw*0602 (human)) was 4180 MFI, the MFI (HLA-B*4403 (human)) was 3900 MFI and the MFI (HLA-B*4101 (human)) was 3390 MFI. For the same substance, the MFI (HLA-Cw*0501 (human)) was 7530 MFI, the MFI (HLA-Cw*1701 (human)) was 2820 MFI and the MFI (HLA-B*1401 (human)) was 7080 MFI. It also gave an MFI (HLA-Cw*0801 (human)) of 6070 MFI, an MFI (HLA-Cw*0702 (human)) of 3090 MFI and an MFI (HLA-Cw*1402 (human)) of 3290 MFI. For the same substance, the MFI (HLA-B*1511 (human)) was 3320 MFI, the MFI (HLA-Cw*0202 (human)) was 4110 MFI and the MFI (HLA-B*5801 (human)) was 4570 MFI. The MFI (HLA-Cw*1601 (human)) was 524 MFI, the MFI (HLA-B*4701 (human)) was 804 MFI and the MFI (HLA-B*5101 (human)) was 347 MFI.
